Reference: patent US20240010751A1 (EXELIXIS, published 2024)
Where a chain is given by its changes, count along the chain named. Each block holds one binder with its values, some of them ahead of it.

Columns and labels:
[1] = biological target: T1, biotinylated human PD-L1 (extracellular domain, Acro Biosystems) (human, UniProt Q9NZQ7 19-238, biotinylated); assay: Octet in-tandem cross-competition, 100 nM biotinylated antigen on a streptavidin sensor
T1 construct: Bought protein; also called biotinylated antigen; biotinylated human PD-L1-His Avitag; not shown: His Avitag or His tag

[2] = biological target: T2, CD47 and PD-L1 together on the surface of the same cells (CD47 PD-L1 TCA CHO cells); PD-L1 MDA-MB-231 cells; … (Homo sapiens (Human), UniProt Q08722 19-323; Q9NZQ7 19-290); assay: flow cytometry on CD47 PD-L1 TCA CHO cells (both targets on the cells); BC1 format
[3] = biological target: T2, CD47 and PD-L1 together on the surface …; assay: flow cytometry on Jeko-PD-L1 cells (both targets on the cells); BC44 format
[4] = biological target: T3, CD47 on cells (target cells of the assays) (Homo sapiens (Human), UniProt Q08722 19-323); assay: cell-based or functional assay
[5] = biological target: T2, CD47 and PD-L1 together on the surface …; assay: flow cytometry on PD-L1 MDA-MB-231 cells (both targets on the cells); BC44 format
[6] = biological target: PD-L1 on cells (target cells of the assays) (Homo sapiens (Human), UniProt Q9NZQ7 19-290); assay: cell-based or functional assay
[7] = biological target: T3, CD47 on cells (target cells of the …); assay: cell-based or functional assay; remark: listed apart in the source

Sequence of PD-L1 on cells (target cells of the assays) (Q9NZQ7 19-290 limits assumed): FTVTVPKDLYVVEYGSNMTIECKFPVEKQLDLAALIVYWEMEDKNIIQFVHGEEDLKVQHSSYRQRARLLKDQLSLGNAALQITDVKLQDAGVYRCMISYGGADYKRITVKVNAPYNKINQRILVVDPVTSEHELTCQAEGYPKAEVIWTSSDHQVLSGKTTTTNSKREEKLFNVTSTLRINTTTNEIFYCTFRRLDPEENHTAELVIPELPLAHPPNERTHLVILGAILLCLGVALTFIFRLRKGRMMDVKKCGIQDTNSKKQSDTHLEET
T1 sequence (Q9NZQ7 19-238): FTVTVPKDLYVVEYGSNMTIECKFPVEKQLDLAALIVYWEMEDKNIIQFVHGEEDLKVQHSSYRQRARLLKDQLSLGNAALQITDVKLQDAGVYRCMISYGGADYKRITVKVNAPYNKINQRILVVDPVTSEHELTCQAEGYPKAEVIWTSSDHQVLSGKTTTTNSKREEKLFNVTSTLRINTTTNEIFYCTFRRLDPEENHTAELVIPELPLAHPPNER

B2: C40 x P24 bispecific antibody in a BC1 format (bispecific antibody)
chain 1: not shown
chain 2: EVQLVESGGGLVQPGGSLRLSCAASGFTFSYYYIHWVRQAPGKGLEWVAWIDPYGHSTTYADSVKGRFTISADTSKNTAYLQMNSLRAEDTAVYYCARGGRGAMDYWGQGTLVTVSSASPREPQVYTDPPSRDELTKNQVSLTCLVKGFYPSDIAVEWESNGQPENNYKTTPPVLDSDGSFFLYSKLTVDKSRWQQGNVFSCSVMHEALHNHYTQKSLSLSGEC
chain 3: DIQMTQSPSSLSASVGDRVTITCRASQSVSSAVAWYQQKPGKAPKLLIYSASSLYSGVPSRFSGSRSGTDFTLTISSLQPEDFATYYCQQVSYSPYTFGQGTKVEIKRTVAAPSVFIFPPSDEQLKSGTASVVCLLNNFYPREAKVQWKVDNALQSGNSQESVTEQDSKDSTYSLSSTLTLSKADYEKHKVYACEVTHQGLSSPVTKSFNRGECDKTHTCPPCPAPELLGGPSVFLFPPKPKDTLMISRTPEVTCVVVDVSHEDPEVKFNWYVDGVEVHNAKTKPREEQYNSTYRVVSVLTVLHQDWLNGKEYKCKVSNKALPAPIEKTISKAKGQPREPQVCTLPPSREEMTKNQVSLSCAVKGFYPSDIAVEWESNGQPENNYKTTPPVLDSDGSFFLVSKLTVDKSRWQQGNVFSCSVMHEALHNHYTQKSLSLSPGK
chain 4: EVQLVESGGGLVQPGGSLRLSCAASGFTFDQYYIHWVRQAPGKGLEWVAEIYPAGSYTYYADSVKGRFTISADTSKNTAYLQMNSLRAEDTAVYYCARGPYSVRYALDYWGQGTLVTVSSASTKGPSVFPLAPSSKSTSGGTAALGCLVKDYFPEPVTVSWNSGALTSGVHTFPAVLQSSGLYSLSSVVTVPSSSLGTQTYICNVNHKPSNTKVDKKVEPPKSC
notes: B-Body of four polypeptide chains, BC1 format; CD47 arm from C40, PD-L1 arm from P24; also called C40 × P24
EC50 [2]: 1.3 nM

B3: C40 x P31.2 bispecific antibody in a BC44 format (bispecific antibody)
chain 1: not shown
chain 2: B2 chain 2 with D128L, S131C, G222P, E223G, C224K
chain 3: B2 chain 3 with V91F, S92G, Y93A, S94E, Y96I
chain 4: EVQLVESGGGLVQPGGSLRLSCAASGFTFSSYYIHWVRQAPGKGLEWVATISSGGGFTYYADSVKGRFTISADTSKNTAYLQMNSLRAEDTAVYYCARGYTLTPVLDYWGQGTLVTVSSASTKGPSVFPLAPSSKSTSGGTAALGCLVKDYFPEPVTVSWNSGALTSGVHTFPAVLQSSGLYSLSSVVTVPSSSLGTQTYICNVNHKPSNTKVDKKVEPPKSC
notes: B-Body of four polypeptide chains, BC44 format; CD47 arm from C40, PD-L1 arm from P31.2; also called C40 × P31.2
EC50 [3]: 0.227 nM
IC50, CD47/SIRPα Inhibition Assay in PD-L1 MDA-MB-231 Cells [4]: 0.108 nM
EC50 [5]: 0.69 nM
IC50, PD-1/PD-L1 Inhibition Assay in Jeko-PD-L1 Cells [6]: 0.0115 nM
IC50, PD-1/PD-L1 Inhibition Assay in MDA-MB-231 PD-L1 Cells [6]: 1.5 nM

B4: C40 x P24 (silent Fc) bispecific antibody in a BC44 format (bispecific antibody)
chain 1: not shown
chain 2: B2 chain 2 with D128L, S131C, G222P, E223G, C224K
chain 3: B2 chain 3 with L228A, L229A, P323K
chain 4: B2 chain 4
IC50, CD47/SIRPα Inhibition Assay, JeKo-PD-L1 Cells [7]: 0.26 nM
IC50, PD-1/PD-L1 Inhibition Assay in Jeko-PD-L1 Cells [6]: 0.274 nM
IC50, PD-1/PD-L1 Inhibition Assay in MDA-MB-231 PD-L1 Cells [6]: 14.7 nM

B5: C59 x P22 bispecific antibody in a BC1 format (bispecific antibody)
chain 1: not shown
chain 2: B2 chain 2 with S30T, Y31S, W50Y, P53S, Y54K, G55H, H56G, S57T, T59Q, G102S
chain 3: B2 chain 3 with V91Y, S92Y, Y93T
chain 4: EVQLVESGGGLVQPGGSLRLSCAASGFTFSSYYIHWVRQAPGKGLEWVAWITSHGYSTKYADSVKGRFTISADTSKNTAYLQMNSLRAEDTAVYYCARDSVIYGLDYWGQGTLVTVSSASTKGPSVFPLAPSSKSTSGGTAALGCLVKDYFPEPVTVSWNSGALTSGVHTFPAVLQSSGLYSLSSVVTVPSSSLGTQTYICNVNHKPSNTKVDKKVEPPKSC
notes: B-Body of four polypeptide chains, BC1 format; CD47 arm from C59, PD-L1 arm from P22; also called C59 × P22
EC50 [2]: 2.3 nM

B6: C56 x P22 bispecific antibody in a BC1 format (bispecific antibody)
chain 1: not shown
chain 2: B2 chain 2 with S30T, W50F, G55S, H56G, T59E, R101L, G102Y, M104L
chain 3: B2 chain 3 with V91Y, S92Y, Y93T
chain 4: B5 chain 4
notes: B-Body of four polypeptide chains, BC1 format; CD47 arm from C56, PD-L1 arm from P22; also called C56 × P22
EC50 [2]: 1.1 nM

B8: C40 x P31.2 bispecific antibody in a BC1 format (bispecific antibody)
chain 1: not shown
chain 2: B2 chain 2
chain 3: B2 chain 3 with V91F, S92G, Y93A, S94E, Y96I
chain 4: B3 chain 4
notes: B-Body of four polypeptide chains, BC1 format; CD47 arm from C40, PD-L1 arm from P31.2; also called C40 × P31.2
EC50 [2]: 0.13 nM

B10: C40 x P24 bispecific antibody in a BC44 format (bispecific antibody)
chain 1: not shown
chain 2: B2 chain 2 with D128L, S131C, G222P, E223G, C224K
chain 3: B2 chain 3
chain 4: B2 chain 4
notes: B-Body of four polypeptide chains, BC44 format; CD47 arm from C40, PD-L1 arm from P24; also called C40 × P24
EC50 [3]: 0.703 nM
IC50, CD47/SIRPα Inhibition Assay, JeKo-PD-L1 Cells [7]: 1.26 nM
IC50, CD47/SIRPα Inhibition Assay in PD-L1 MDA-MB-231 Cells [4]: 0.112 nM
EC50 [5]: 3.1 nM
IC50, PD-1/PD-L1 Inhibition Assay in Jeko-PD-L1 Cells [6]: 0.275 nM
IC50, PD-1/PD-L1 Inhibition Assay in MDA-MB-231 PD-L1 Cells [6]: 1.3 nM

Second part, the binder after the results:

binding result [1]: binds
B1: antibody designated P24 (antibody, V domains shown)
VH: EVQLVESGGGLVQPGGSLRLSCAASGFTFDQYYIHWVRQAPGKGLEWVAEIYPAGSYTYYADSVKGRFTISADTSKNTAYLQMNSLRAEDTAVYYCARGPYSVRYALDYWGQGTLVT
VL: DIQMTQSPSSLSASVGDRVTITCRASQSVSSAVAWYQQKPGKAPKLLIYSASSLYSGVPSRFSGSRSGTDFTLTISSLQPEDFATYYCQQVSYSPYTFGQGTKVEIK
notes: Anti-PD-L1

EC50 [3]: 0.256 nM
IC50, CD47/SIRPα Inhibition Assay in PD-L1 MDA-MB-231 Cells [4]: 0.266 nM
EC50 [5]: 2.5 nM
IC50, PD-1/PD-L1 Inhibition Assay in Jeko-PD-L1 Cells [6]: 0.0268 nM
IC50, PD-1/PD-L1 Inhibition Assay in MDA-MB-231 PD-L1 Cells [6]: 3.7 nM
B7: C59 x P31.2 bispecific antibody in a BC44 format (bispecific antibody)
chain 1: not shown
chain 2: EVQLVESGGGLVQPGGSLRLSCAASGFTFTSYYIHWVRQAPGKGLEWVAYIDSKHGTTQYADSVKGRFTISADTSKNTAYLQMNSLRAEDTAVYYCARGGRSAMDYWGQGTLVTVSSASPREPQVYTLPPCRDELTKNQVSLTCLVKGFYPSDIAVEWESNGQPENNYKTTPPVLDSDGSFFLYSKLTVDKSRWQQGNVFSCSVMHEALHNHYTQKSLSLSPGK
chain 3: B2 chain 3 with V91F, S92G, Y93A, S94E, Y96I
chain 4: B3 chain 4
notes: B-Body of four polypeptide chains, BC44 format; CD47 arm from C59, PD-L1 arm from P31.2; also called C59 × P31.2

EC50 [3]: 0.218 nM
IC50, CD47/SIRPα Inhibition Assay, JeKo-PD-L1 Cells [7]: 1.2 nM
IC50, CD47/SIRPα Inhibition Assay in PD-L1 MDA-MB-231 Cells [4]: 0.218 nM
EC50 [5]: 1.2 nM
IC50, PD-1/PD-L1 Inhibition Assay in Jeko-PD-L1 Cells [6]: 1.99 nM
IC50, PD-1/PD-L1 Inhibition Assay in MDA-MB-231 PD-L1 Cells [6]: 3 nM
B9: C56 x P22 bispecific antibody in a BC44 format (bispecific antibody)
chain 1: not shown
chain 2: B7 chain 2 with S31Y, Y50F, S53P, K54Y, H55S, T57S, Q59E, R101L, S102Y, M104L
chain 3: B2 chain 3 with V91Y, S92Y, Y93T
chain 4: B5 chain 4
notes: B-Body of four polypeptide chains, BC44 format; CD47 arm from C56, PD-L1 arm from P22; also called C56 × P22

IC50, CD47/SIRPα Inhibition Assay in PD-L1 MDA-MB-231 Cells [4]: 0.35 nM
EC50 [5]: 1.5 nM
IC50, PD-1/PD-L1 Inhibition Assay in Jeko-PD-L1 Cells [6]: 0.0481 nM
IC50, PD-1/PD-L1 Inhibition Assay in MDA-MB-231 PD-L1 Cells [6]: 2.5 nM
B11: C59 x P22 bispecific antibody in a BC44 format (bispecific antibody)
chain 1: not shown
chain 2: B7 chain 2
chain 3: B2 chain 3 with V91Y, S92Y, Y93T
chain 4: B5 chain 4
notes: B-Body of four polypeptide chains, BC44 format; CD47 arm from C59, PD-L1 arm from P22; also called C59 × P22
